# Tested on: MS2 coat protein
# Assay: apparent KD of MS2 coat protein; designed switch direction (-1 OFF switch, 1 ON switch): -1; higher = weaker reporter binding
# How it was run: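 Stalled E. coli RNA polymerase transcribed designed RNA switches on Illumina chips, which were then titrated with SNAP-549-labelled MS2 coat protein, doubling from 0.7 or 1.5 nM to 3 µM. Steps lasted from 0.8–1.5 h at the lowest concentration to 10–20 min at the highest. The apparent KD is each design's median over clusters of curve-fitted normalised fluorescence.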
# [1] = input ligand: microRNA oligo, concentration not stated
# [2] = Eterna round: R95, input ligand: FMN 200 uM
# [3] = Eterna round: R95, input ligand: microRNA oligo, concentration not stated
# [4] = Eterna round: R95, input ligand: none
Sequence,apparent KD of MS2 coat protein (input ligand: FMN 200 uM),apparent KD of MS2 coat protein [1],apparent KD of MS2 coat protein (input ligand: none),apparent KD of MS2 coat protein [2],apparent KD of MS2 coat protein [3],apparent KD of MS2 coat protein [4]
"ACAAGACAUGAGGAUCACCCAUGUGGUCGGAUGUCAAAGACCGAGGAUAUCAGCGACUGCGCCGCUGAGAAGGCGGAUGGUGCU [Telaed] (Eterna round: R96, puzzle: Exclusion NG 3)",1260 nM,476 nM,652 nM,–,–,–
"AUCCUUAACAAGGAUAUCGGGCGGGAAAUUGUUUGAGAAGGUGUAACAUGAGGAUCACCCAUGUGGCGCGUGGA [-20.8, -18.9 kcal, A 28%] (Eterna round: R97, puzzle: Exclusion 6)",54.6 nM,–,56.6 nM,–,–,–
"GGAAAACGCUGAGGAUAUGGAAGGAAAGGAAGACCAGAAGGCAGGGUCACACAACAUGAGGAUCACCCAUGUGUGUGUAGCGGA [exng1 ex3] (Eterna round: R96, puzzle: Exclusion NG 1)",9.75 nM,10.2 nM,12.7 nM,–,–,–
"ACGGUGGUCCGAGAACAUGAGGAUCACCCAUGUGACAAAACCAAGGAUAUAGAAGGACCGCCCGACUAGAAGGUGGAAAGAAAA [Aresonen] (Eterna round: R96, puzzle: Exclusion NG 3)",101 nM,73.3 nM,117 nM,–,–,–
"GUCAGCUCGUGAGGAUAUACAUGCGUGCUUCGGCACGUAUGAUAGAUCACAUGAGGAUCACCCAUGUAGAAGGUACGAGCUGAU [ENG2/4-C2] (Eterna round: R96, puzzle: Exclusion NG 2)",14.9 nM,10.8 nM,15.2 nM,–,–,–
"AUAUUAAUAGUAAGGAUAUGCGUGUGUGUAGUUAUGCAGAAGGUACAUGAGGAUCACCCAUGUAUUAAUGUGUG [LRO-BmodExc4-08-Oppy's Opus] (Eterna round: R97, puzzle: Brourd's mod of Exclusion 4)",18 nM,–,19.7 nM,–,–,–
"GCUGCGCGAGGAUAUGCGGUUUGCGCUGUGGCCCGUGGCGUACAUGAGGAUCACCCAUGUAGAAGGCGUGUGGG [Apr-15 SS2-55] (Eterna round: R96, puzzle: Exclusion 2)",27.6 nM,21.3 nM,30.1 nM,–,–,–
"AAAGCUGCAGGAUAUGCAUGUGUGGACAUGAGGAUCACCCAUGUGAGCGUAUCAUGUCGAGCAGAAGGGCAGUAAA [Atquer] (Eterna round: R97, puzzle: Exclusion 5)",172 nM,–,630 nM,–,–,–
"CGUGUCUUUUACGUGAGUGGUGGGUGCAACAGGUGGGUUACAUGAGGAUCACCCAUGUCCUCACUUGCUCGUCUUUU [Grok-var2-08] (puzzle: Sensor v3, turn-off variant 2)",–,–,–,76.7 nM,53.5 nM,69.8 nM
"AGUAACUCAAGAGGAUAUCACAUGAGGAUCACCCAUGUAUAGCGCGCUGCGCUAGUCCUCGUAUUUGAGAAGGUUUGAUAAAUG [Riausve] (Eterna round: R96, puzzle: Exclusion NG 2)",13 nM,10.8 nM,15.7 nM,–,–,–
"AAGAUACAUGAGGAUCACCCAUGUGAGGAUAUCAGCACGACCGUGAGGUCGAUAAGAAUGAGAAGGCACAAUGG [JL-ex1-4.51] (Eterna round: R97, puzzle: Exclusion 1)",103 nM,–,279 nM,–,–,–
"GGUCAGAUGGUAGGAUAUCCAUAUCGAGUGACCCUUUCAUAACAUGAGGAUCACCCAUGUUGGUGGGAGAAGGGCCGUACGGCG [salish99_ExNG02_R04_019] (Eterna round: R96, puzzle: Exclusion NG 2)",17.2 nM,14.4 nM,22 nM,–,–,–
"GAGUUACAUGAGGAUCACCCAUGUGAGGAUAUGAGUCAGUCACGGUGACGUGGCUGACUCAGAAGGCACAAUGG [Mat - Exclusion 1 - JL Mod - D46] (Eterna round: R97, puzzle: Exclusion 1)",256 nM,–,380 nM,–,–,–
"GGAUCGAGUGUGAGGAUAUGCAGGUCCUUGGAUCUGCAGAAGGCACAUGAGGAUCACCCAUGUGAUCAAGAUCC [Mat - Exclusion 4 - Eli Mod - D47] (Eterna round: R97, puzzle: Brourd's mod of Exclusion 4)",36.6 nM,–,777 nM,–,–,–
CGUGACUCAGGAUAUCUAUAGUAUCACAUGAGGAUCACCCAUGUCCAGCGAAAGCUGGAGGGAGAAGGGAGUCACG [Fiskers Ex 5 - 42] (puzzle: Exclusion 5),–,–,–,71.3 nM,130 nM,229 nM
"UAUUAGUAAGGAUAUGAGGCGUAGUACGAAAGUACUACGUCUCAGAAGGUACAUGAGGAUCACCCAUGUUCAUU [Mod of Fisker 4 - Jieux - Exclusion 4] (Eterna round: R97, puzzle: Exclusion 4)",19.9 nM,–,17.8 nM,–,–,–

Sequence,apparent KD of MS2 coat protein (input ligand: FMN 200 uM),apparent KD of MS2 coat protein [1],apparent KD of MS2 coat protein (input ligand: none),apparent KD of MS2 coat protein [2],apparent KD of MS2 coat protein [3],apparent KD of MS2 coat protein [4]
"UAUAUAUAGUAAGGAUAUGUAUUAAUUUUAUAAACAGAAGGUACUGACAUGAGGAUCACCCAUGUUUUAGUGUGGGCAUGUAGA [JMF's solution 9] (Eterna round: R96, puzzle: Exclusion NG 1)",–,72.8 nM,–,–,–,–
"UUCAGGCGAGGAUAUCCAUGAAGUAACAUGAGGAUCACCCAUGUUCGCUGUUACUCCGAAGGAGAAGGUGCUCUGG [Eternabot (L2) Solution 25] (Eterna round: R97, puzzle: Exclusion 5)",196 nM,–,100 nM,–,–,–
"GCACGAAGUGUAGGAUAUCUGUGCGAUUAGCUCAGAGAAGGACACAUGAGGAUCACCCAUGUGUUCCAAUCACAAAAUACGUGC [Eli exng1 - 060] (Eterna round: R96, puzzle: Exclusion NG 1)",11.7 nM,11 nM,11.9 nM,–,–,–
GGUGCGUUUGUGAGGAUAUGCUGGUCCUUGGUUCGGCAGAAGGCACAUGAGGAUCACCCAUGUGGUGUCGUGCC [salish99_Bmod_Ex4_045] (puzzle: Brourd's mod of Exclusion 4),–,–,–,–,33.1 nM,–
"CUUUAGCAGGUAGGAUAUACGAAGUGUCGGCGAGUAGAAGGACCUGCGAUCCACUUGAGGAUCACCCAAGUUCGCAGGAGAACA [Mutated MS2 EX1.10] (Eterna round: R96, puzzle: Exclusion NG 1)",103 nM,35.6 nM,50.8 nM,–,–,–
"AGAUCUAGGACAGGAUAUAUAGAUGGCUUCAUCGAAGAUGAAGCCAUCACAUGAGGAUCACCCAUGUAGAAGGGUCCUAGAUCA [Omei Exc(NG) 2Av6] (Eterna round: R96, puzzle: Exclusion NG 2)",10.9 nM,8.74 nM,10.3 nM,–,–,–
"UAUUCUAGAUAGGAUAUACUUUUUUUUUUUUUCGUAGAAGGAUCUACAUGAGGAUCACCCAUGUUUUCAGCAGU [JR_E6_Sub012] (Eterna round: R96, puzzle: Exclusion 6)",99.6 nM,65.7 nM,71.1 nM,–,–,–
"AGUUCACAUGAGGAUCACCCAUGUGAGGAUAUGGAUUCGCUGGCCGUAGCCAGUGGAUCCAGAAGGCGCAUGAU [JL-ex1-4.14] (Eterna round: R97, puzzle: Exclusion 1)",36.9 nM,–,32 nM,–,–,–
"CUGCUGGAGCUUUGCUUUGGUCGUACAUGAGGAUCACCCAUGUAGGAUAUGGUAGGCUUUGCUUACUAGAAGGAUAGAGUGGUC [salish99_ExNG3_r04_608] (Eterna round: R96, puzzle: Exclusion NG 3)",160 nM,76.4 nM,86.4 nM,–,–,–
"CUUUCGUGAGGAUAUGUGGCUUCGAUCGUGAGAUCGAGGCAACAGAAGGCACAUGAGGAUCACCCAUGUUCCUC [salish99_ex4_r4_207] (Eterna round: R97, puzzle: Exclusion 4)",546 nM,–,40.5 nM,–,–,–
"AGUUGGCGAGGAUAUACAUGAGGAUCACCCAUGUAAAAAAAAAAAAAAAAAACUUCAUGUAGAAGGCGCUGACA [Starry Exclusion 3.4 (biggestlegoheroicafanever round 1 mod)] (Eterna round: R96, puzzle: Exclusion 3)",327 nM,200 nM,373 nM,–,–,–
"ACAUCACAGCUAGGAUAUAGAUGACAUGAGGAUCACCCAUGUUAUCCCAUGUUGACGGAAACCGACUAGAAGGAGCUACAGAUG [Ex NG2 #7] (Eterna round: R96, puzzle: Exclusion NG 2)",129 nM,41.8 nM,47.9 nM,–,–,–
"CCCUUGUGAGGAUAUAGUAGUUGCACAUCGAUAGAGUAACUCUAGAAGGCACAUGAGGAUCACCCAUGUACGAA [Eternabot (L1) Solution 56] (Eterna round: R97, puzzle: Exclusion 4)",70.2 nM,–,119 nM,–,–,–
"ACACAAAGCUAGGAUAUCCAGGCAUCUUCGGCCGGAGAAGGAGCCACAUGAGGAUCACCCAUGUGGUGAUCCUG [eternacac ex6r4 sub5] (Eterna round: R97, puzzle: Exclusion 6)",70.9 nM,–,50.6 nM,–,–,–
"GUCACAUGGGUGUAGAAUCACAUGAGGAUCACCCAUGUGACUAACAAGCUUUUUGCUCGUCUUAUGUCUAUGUGAAG [Stov1/17-A3] (Eterna round: R97, puzzle: Sensor, turn-off variant 1)",58.7 nM,–,32.1 nM,–,–,–
"UAAACAAGCUAAAGAUCCCACAUGAGGAUCACCCAUGUGCUCGUCUUGUAACGUACUGUGACGAAAGUCACGGUACG [JL TOV1 3.11] (Eterna round: R97, puzzle: Sensor, turn-off variant 1)",19.1 nM,–,22.8 nM,–,–,–

# From the supplement of paper PMC9170038
